Data as given in patent US20240132603A1 (HARBOUR BIOMED US, published 2024).
Changes are numbered by the printed parent chain.

B1: PR004120 (antibody, human IgG1, kappa, V domains shown)
VH: EVQLVESGGGLVQPKGSLKLSCAASGFTFNTNAMNWVRQAPGKGLEWVARIRSKMNNYATYYADSVKDRFTISRDDSQNMLYLQMNNLKTEDTAMYYCVRGKENGNYYAMDFWGQGTSVTVSA
VL: DIVMTQAATSVLVTPGESVSISCRSSKSLLYSNGNTYLYWFLQRPGQSPQLLIYRMSNLASGVPDRFSGSGSGTAFTLRISRVEAEDVGVYYCMQHLEYPFTFGGGTKLEIKR
notes: chimeric, human IgG1 constant region
B2: PR004123 (antibody, human IgG1, kappa, V domains shown)
VH: B1 VH with G26E, N32Y, S53T, M55S, Y58F, N79S, Y82F
VL: B1 VL with T9P, L12P, Y31H, I111L
notes: as for B1
B3: PR004126 (antibody, human IgG1, kappa, V domains shown)
VH: B1 VH with N30S, A49G, M55S, N79S
VL: B1 VL with M4I, T9P, L12P, Y31H, G105A, I111L
notes: as for B1
B4: PR004127 (antibody, human IgG1, kappa, V domains shown)
VH: B1 VH with S7T, M55S, A123S
VL: B1 VL with I111M
notes: as for B1
B5: PR004130 (antibody, human IgG1, kappa, V domains shown)
VH: B1 VH with P14F, A23G, A24T, N32Y, M55S, Y61F, A123S
VL: B1 VL with T9P, L12P, Y31H, G105S
notes: as for B1
B6: PR004124 (antibody, human IgG1, kappa, V domains shown)
VH: EVKVEESGGGLVQPGGSMKLSCAASGFTFNTYAMNWVRQAPGKGLEWVARIRSKSNNYATYYADSVKDRFTISRDDSQSMLYLQMNNLKTEDTAMYYCVRGKDYGNYYAMDFWGQGTSLTVSS
VL: B1 VL with A7D, A8E, T9L, V11N, L12P, P15S, Y31H, I111L
notes: as for B1
B7: PR004129 (antibody, human IgG1, kappa, V domains shown)
VH: B6 VH with K3Q, V4L, E5V, G15K, M18L, F112Y, L119V
VL: DILLTQSPAILSVSPGERVSFSCRSSKSLLHSNGNTYLYWFLQRPGQSPQLLIYRMSNLASGVPDRFSGSGSGTAFTLRISRVEAEDVGVYYCMQHLEYPFTFGSGTKLEINR
notes: as for B1
B8: PR004669 (antibody, human IgG1, kappa)
heavy: not shown
light: DIVMTQSPLSLPVTLGQPASISCRSSKSLLHSNGKIYLYWFQQRPGQSPRLLIYRMSNLASGVPDRFSGSGSGTDFTLKISRVEAEDVGVYYCMQHLEYPLTFGQGTKLEIKRTVAAPSVFIFPPSDEQLKSGTASVVCLLNNFYPREAKVQWKVDNALQSGNSQESVTEQDSKDSTYSLSSTLTLSKADYEKHKVYACEVTHQGLSSPVTKSFNRGEC
notes: humanized; same VH/VL as PR004525, other heavy chain entry
B9: PR005565AF (antibody, human IgG1, kappa)
heavy: not shown
light: B8 light with G34A
modifications: afucosylated (AF) Fc glycan, produced with 2-fluoro peracetylated fucose
notes: also called PR005565F
B10: PR006154 (antibody, human IgG1, kappa, V domains shown)
VH: EVQLVESGGGLVKPGGSLRLSCAASGFTFSTYAMNWVRQAPGKGLEWVGRIRSKSNNYATYYADSVKDRFTISRDDSKSTLYLQMNSLKTEDTAVYYCVRGKEHGNYYAMDFWGQGTTVTVSS
VL: DIVMTQSPLSLPVTLGQPASISCRSSKSLLHSNAKIYLYWFQQRPGQSPRLLIYRMSNLASGVPDRFSGSGSGTDFTLKISRVEAEDVGVYYCMQHLEYPLTFGQGTKLEIKR
B11: PR006156 (antibody, human IgG1, kappa, V domains shown)
VH: B10 VH with H104I
VL: B10 VL
B12: PR006157 (antibody, human IgG1, kappa, V domains shown)
VH: B10 VH with N57Y, H104I
VL: B10 VL
B13: PR006161 (antibody, human IgG1, kappa, V domains shown)
VH: B10 VH with N57Y, N106K
VL: B10 VL
B14: PR004338 (antibody, human IgG1, kappa, V domains shown)
VH: B10 VH with K13Q, R19K, S30N, P41S, H104N, F112Y
VL: B1 VL with T9P, L12P, Y31H, N35K, T36I, F101L, G105A
notes: heavy-chain semi-humanized variant of PR004128, IgG1 with DE mutation
B15: PR004330 (antibody, human IgG1, kappa, V domains shown)
VH: B10 VH with S30N, H104N
VL: B1 VL with T9P, L12P, Y31H, N35K, T36I, F101L, G105A
notes: as for B14
B16: PR004331 (antibody, human IgG1, kappa, V domains shown)
VH: B10 VH with S30N, Y32N, H104N
VL: B1 VL with T9P, L12P, Y31H, N35K, T36I, F101L, G105A
notes: as for B14
B17: PR004332 (antibody, human IgG1, kappa, V domains shown)
VH: B10 VH with S30N, H104N, F112Y
VL: B1 VL with T9P, L12P, Y31H, N35K, T36I, F101L, G105A
notes: as for B14
B18: PR004339 (antibody, human IgG1, kappa, V domains shown)
VH: B1 VH with N32Y, M55S, N79S
VL: B10 VL with L15P, Q17E, A34G, Q42L, R44K, R50Q
notes: light-chain semi-humanized variant of PR004128, IgG1 with DE mutation
B19: PR004340 (antibody, human IgG1, kappa, V domains shown)
VH: B1 VH with N32Y, M55S, N79S
VL: B10 VL with L15P, Q17E, A34G, K35N, I36T, Q42L, R44K, R50Q
notes: as for B18
B20: PR004333 (antibody, human IgG1, kappa, V domains shown)
VH: B10 VH with K13Q, S30N, G49S, K89R, T90A, H104N
VL: B1 VL with T9P, L12P, Y31H, N35K, T36I, F101L, G105A
notes: as for B14
B21: PR004334 (antibody, human IgG1, kappa, V domains shown)
VH: B10 VH with K13Q, S30N, Y32N, G49S, K89R, T90A, H104N
VL: B1 VL with T9P, L12P, Y31H, N35K, T36I, F101L, G105A
notes: as for B14
B22: PR004335 (antibody, human IgG1, kappa, V domains shown)
VH: B10 VH with K13Q, S30N, G49S, K89R, T90A, H104N, F112Y
VL: B1 VL with T9P, L12P, Y31H, N35K, T36I, F101L, G105A
notes: as for B14
B23: PR004343 (antibody, human IgG1, kappa, V domains shown)
VH: B1 VH with N32Y, M55S, N79S
VL: B10 VL with A34G
notes: as for B18
B24: PR004344 (antibody, human IgG1, kappa, V domains shown)
VH: B1 VH with N32Y, M55S, N79S
VL: B10 VL with A34G, K35N, I36T
notes: as for B18
B25: PR004345 (antibody, human IgG1, kappa, V domains shown)
VH: B1 VH with N32Y, M55S, N79S
VL: B10 VL with S26N, A34G, K35N, I36T
notes: as for B18

Each binder was assayed against T1, human CCR8 (human, UniProt P51685 1-355) (assay: FACS, Baf3-hCCR8 cells).
T1 construct: whole, on cells; construct used for the overexpressing cell lines is not described; also called hCCR8
T1 sequence (P51685 whole entry): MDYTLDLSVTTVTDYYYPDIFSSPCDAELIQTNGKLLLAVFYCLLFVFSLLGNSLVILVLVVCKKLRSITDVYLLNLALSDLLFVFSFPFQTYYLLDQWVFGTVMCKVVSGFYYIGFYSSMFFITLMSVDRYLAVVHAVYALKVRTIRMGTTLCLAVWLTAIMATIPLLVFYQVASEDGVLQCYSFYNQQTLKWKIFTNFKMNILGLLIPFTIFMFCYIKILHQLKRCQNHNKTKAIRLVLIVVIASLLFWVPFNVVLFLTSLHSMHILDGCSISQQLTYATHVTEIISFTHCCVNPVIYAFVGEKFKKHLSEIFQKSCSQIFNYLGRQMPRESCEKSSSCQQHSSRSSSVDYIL
Experimental: (§1) Cells overexpressing human CCR8 were digested with pancreatin, counted and resuspended to a cell density of 1E6 cells/mL. The cell suspension was added to a 96-well V-bottom plate at 100 μL/well and centrifuged at 300 g for 5 min, and the supernatant was discarded. The anti-CCR8 antibodies provided herein was used as a primary antibody and diluted in a 5-fold gradient with an FACS buffer (DPBS containing 2% FBS) from 200 nM. The diluted primary antibody was added at 100 μL/well to resuspend the cells, and the mixture was incubated at 4° C. for 1 h. The plate was washed twice with DPBS and centrifuged at 300×g for 5 min, and the supernatant was discarded. The secondary antibody diluted in a 1:1000 ratio with an FACS buffer was added at 100 μL/well to suspend the cells, and the mixture was incubated at 4° C. for 40 min. The plate was washed twice with DPBS and centrifuged at 300×g for 5 min, and the supernatant was discarded. DPBS was added at 200 μL/well to suspend the cells, and the mixture was loaded on an FACS machine for analysis.
In the case of B1, the EC50 is reported as 0.24 nM. With B2 the EC50 was 0.2 nM. In the case of B3, the EC50 is reported as 0.18 nM. For B4, the EC50 was 0.26 nM. For B5, the EC50 was 0.2 nM. For B6, the EC50 was 0.17 nM. Work on B7 yielded an EC50 of 0.06 nM.

Each binder was assayed against T1, human CCR8 (assay: FACS, CHO-K1-hCCR8 cells).
Experimental: as §1
Binder B1 has an EC50 of 0.54 nM. With B2 the EC50 was 0.46 nM. In the case of B3, the EC50 is reported as 0.43 nM. Work on B4 yielded an EC50 of 0.56 nM. B5 showed an EC50 of 0.46 nM. With B8 the EC50 was 0.72 nM. B9 was tested, and the EC50 was 0.38 nM. Work on B10 yielded an EC50 of 0.38 nM. With B11 the EC50 was 0.38 nM. In the case of B12, the EC50 is reported as 0.73 nM. B13 showed an EC50 of 0.38 nM. In the case of B6, the EC50 is reported as 0.45 nM. B7 showed an EC50 of 0.25 nM.

Each binder was assayed against T1, human CCR8 (assay: FACS, HEK293-hCCR8 cells).
Experimental: as §1
With B1 the EC50 was 1.1 nM. Work on B2 yielded an EC50 of 0.62 nM. For B3, the EC50 was 0.58 nM. B4 was tested, and the EC50 was 0.86 nM. B5 showed an EC50 of 0.8 nM. B6 gave an EC50 of 0.58 nM. Binder B7 has an EC50 of 0.34 nM.

Biological target: T1, human CCR8
Assay: FACS, CHO-K1-hCCR8 cells
Remark: another data set of the same source
Experimental: as §1
B14 gave an EC50 of 0.72 nM. For B15, the EC50 was 0.85 nM. Binder B16 has an EC50 of 1.03 nM. In the case of B17, the EC50 is reported as 0.73 nM. With B18 the EC50 was 0.95 nM. Binder B19 has an EC50 of 1.06 nM. Work on B20 yielded an EC50 of 0.91 nM. Binder B21 has an EC50 of 1.33 nM. With B22 the EC50 was 0.97 nM. B23 gave an EC50 of 1.08 nM. With B24 the EC50 was 1 nM. B25 was tested, and the EC50 was 1.12 nM.

These binders were tested against T2, cynomolgus monkey CCR8 (cynomolgus monkey, UniProt G7NYJ2 1-355) (assay: FACS, CHO-K1-CynoCCR8 cells).
T2 construct: whole, on cells; also called CynoCCR8
T2 sequence (G7NYJ2 entry or part of it): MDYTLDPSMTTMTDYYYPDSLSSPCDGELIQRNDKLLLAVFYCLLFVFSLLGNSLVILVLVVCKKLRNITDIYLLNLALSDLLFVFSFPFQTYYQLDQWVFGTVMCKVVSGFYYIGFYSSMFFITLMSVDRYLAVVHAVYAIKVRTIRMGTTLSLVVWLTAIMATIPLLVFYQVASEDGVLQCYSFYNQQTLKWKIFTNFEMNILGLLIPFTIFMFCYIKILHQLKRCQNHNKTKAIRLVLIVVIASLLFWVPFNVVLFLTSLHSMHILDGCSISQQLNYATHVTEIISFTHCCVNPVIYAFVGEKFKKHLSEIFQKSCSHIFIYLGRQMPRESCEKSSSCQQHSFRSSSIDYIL
Experimental: as §1, with “cynomolgus monkey CCR8, CHO-K1-CynoCCR8,” for “human CCR8”
In the case of B9, the EC50 is reported as 0.62 nM. In the case of B10, the EC50 is reported as 0.31 nM. B11 gave an EC50 of 0.3 nM. For B12, the EC50 was 0.42 nM. In the case of B13, the EC50 is reported as 0.43 nM.

Biological target: T2, cynomolgus monkey CCR8
Assay: FACS, CHO-K1-CynoCCR8 cells
Remark: another data set of the same source
Experimental: as §1, with “cynomolgus monkey CCR8, CHO-K1-CynoCCR8,” for “human CCR8”
With B14 the EC50 was 4.21 nM. B15 showed an EC50 of 3.96 nM. For B16, the EC50 was 6.99 nM. B17 gave an EC50 of 2.75 nM. In the case of B18, the EC50 is reported as 9.58 nM. In the case of B19, the EC50 is reported as 5.35 nM. For B20, the EC50 was 4.97 nM. B21 gave an EC50 of 7.5 nM. Work on B22 yielded an EC50 of 3.52 nM. Binder B23 has an EC50 of 6.38 nM. B24 gave an EC50 of 3.51 nM. Binder B25 has an EC50 of 5.96 nM.

Biological target: T2, cynomolgus monkey CCR8
Assay: FACS, CHO-K1-CynoCCR8 cells
Remark: another data set of the same source
Experimental: as §1, with “cynomolgus monkey CCR8, CHO-K1-CynoCCR8,” for “human CCR8”
For B8, the EC50 was 1.61 nM.
